Earlier results on one substance are cited in publication PMC12026706.

pKd: −log10 of the molar value.

Targets include IL-6R (Homo sapiens) (UniProt P08887); MD2 (Homo sapiens) (UniProt Q9Y6Y9); TLR4 (Homo sapiens) (UniProt O00206); TREM-1 (Homo sapiens) (UniProt Q9NP99).
Assay in all cases: BIAcore SPR
The target of data set [1] is TLR4/MD2 complex (Homo sapiens) (UniProt O00206).
TLR4/MD2 complex (Homo sapiens), sequence (O00206 24-839, chain 1 of 2): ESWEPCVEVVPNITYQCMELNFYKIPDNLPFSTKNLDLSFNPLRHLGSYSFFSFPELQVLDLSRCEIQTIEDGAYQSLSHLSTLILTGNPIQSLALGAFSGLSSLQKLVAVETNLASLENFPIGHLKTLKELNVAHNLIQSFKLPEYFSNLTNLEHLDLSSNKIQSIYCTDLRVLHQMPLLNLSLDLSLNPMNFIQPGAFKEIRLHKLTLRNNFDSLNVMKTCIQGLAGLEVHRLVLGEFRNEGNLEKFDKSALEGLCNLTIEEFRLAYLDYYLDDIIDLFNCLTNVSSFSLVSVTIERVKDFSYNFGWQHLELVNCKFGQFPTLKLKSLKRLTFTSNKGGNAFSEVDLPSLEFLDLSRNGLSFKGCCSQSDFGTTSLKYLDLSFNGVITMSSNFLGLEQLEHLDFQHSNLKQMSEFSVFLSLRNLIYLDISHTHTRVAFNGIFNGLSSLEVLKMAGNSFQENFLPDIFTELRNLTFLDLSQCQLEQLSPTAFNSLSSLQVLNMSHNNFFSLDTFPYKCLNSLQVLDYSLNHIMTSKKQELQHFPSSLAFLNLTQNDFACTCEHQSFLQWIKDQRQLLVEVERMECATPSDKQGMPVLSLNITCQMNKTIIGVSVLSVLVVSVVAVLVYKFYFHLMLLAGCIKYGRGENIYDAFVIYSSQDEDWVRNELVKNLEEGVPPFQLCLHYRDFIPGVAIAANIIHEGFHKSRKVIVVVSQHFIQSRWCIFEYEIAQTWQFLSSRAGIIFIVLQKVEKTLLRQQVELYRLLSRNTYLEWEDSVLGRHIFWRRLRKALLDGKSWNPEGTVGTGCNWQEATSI
TLR4/MD2 complex (Homo sapiens), sequence (Q9Y6Y9 19-160, chain 2 of 2, further chain): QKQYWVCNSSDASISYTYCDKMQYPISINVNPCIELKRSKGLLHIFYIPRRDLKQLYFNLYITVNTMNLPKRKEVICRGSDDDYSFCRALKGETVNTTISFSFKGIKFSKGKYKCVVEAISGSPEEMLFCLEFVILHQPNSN

eCIRP, sequence (Q14011 whole entry): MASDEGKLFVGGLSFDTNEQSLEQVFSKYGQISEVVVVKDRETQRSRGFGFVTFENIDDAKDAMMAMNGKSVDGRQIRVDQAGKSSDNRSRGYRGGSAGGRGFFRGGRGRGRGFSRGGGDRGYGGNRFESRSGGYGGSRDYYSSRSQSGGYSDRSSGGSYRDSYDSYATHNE
IL-6R (Homo sapiens), sequence (P08887 20-355): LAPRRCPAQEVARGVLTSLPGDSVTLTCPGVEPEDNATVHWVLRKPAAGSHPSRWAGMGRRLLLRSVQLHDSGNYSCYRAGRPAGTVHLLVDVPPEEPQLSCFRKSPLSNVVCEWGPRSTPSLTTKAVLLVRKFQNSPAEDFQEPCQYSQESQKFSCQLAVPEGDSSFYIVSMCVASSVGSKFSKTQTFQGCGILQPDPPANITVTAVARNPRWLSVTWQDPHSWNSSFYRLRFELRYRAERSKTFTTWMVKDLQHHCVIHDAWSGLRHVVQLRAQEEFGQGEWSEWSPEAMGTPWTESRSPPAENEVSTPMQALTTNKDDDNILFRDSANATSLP
MD2 (Homo sapiens), sequence (Q9Y6Y9 19-160): as the sequence (Q9Y6Y9 19-160, chain 2 of 2, further chain) above
TREM-1 (Homo sapiens), sequence (Q9NP99 21-234): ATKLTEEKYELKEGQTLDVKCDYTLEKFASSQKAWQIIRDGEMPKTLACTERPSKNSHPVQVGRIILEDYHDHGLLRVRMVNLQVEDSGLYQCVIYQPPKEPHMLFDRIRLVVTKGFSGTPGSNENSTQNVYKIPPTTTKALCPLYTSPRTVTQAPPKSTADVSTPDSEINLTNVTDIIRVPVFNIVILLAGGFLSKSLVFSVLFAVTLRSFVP
TLR4 (Homo sapiens), sequence (O00206 24-839): as the sequence (O00206 24-839, chain 1 of 2) above

By pKd is commonly meant −log10 of the Kd, conventionally taken in molar units. With eCIRP (from UniProt Q14011), the pKd is 7.01 with IL-6R (Homo sapiens); 6.52 with MD2 (Homo sapiens); 6.21 with TLR4 (Homo sapiens); 6.62 in data set [1]; 6.93 with TREM-1 (Homo sapiens).
